Source: US20160024208A1 (Regeneron, published 2016)

T1: Native Nav1.7 (3-1) peptide, rat (rat)
T1 construct: Synthetic peptide; also called Rat Nav1.7 3-1 native
T1 peptide: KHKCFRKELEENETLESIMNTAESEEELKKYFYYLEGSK

T2: Native Nav1.7 (3-1) peptide, human (human)
T2 construct: Synthetic peptide (Celtek), unbiotinylated; also called Human Nav1.7 3-1 native; Nav1.7 3-1 native peptide
T2 peptide: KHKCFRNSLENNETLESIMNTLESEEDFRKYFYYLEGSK

T3: N-Term Biotin Nav1.7 (3-1) peptide, mulatta (mulatta (monkey), not fully specified; N-terminal biotin attached via a G4S linker)
T3 construct: Synthetic peptide; also called Mulatta Nav1.7 3-1 N-term biotin; monkey
T3 peptide: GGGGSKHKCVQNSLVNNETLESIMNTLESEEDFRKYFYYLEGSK

T4: N-Term Biotin Nav1.7 (3-1) peptide, mouse (mouse, not fully specified; N-terminal biotin attached via a G4S linker)
T4 construct: Synthetic peptide; also called Mouse Nav1.7 3-1 N-term biotin
T4 peptide: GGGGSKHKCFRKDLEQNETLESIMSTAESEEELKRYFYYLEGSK

T5: C-term Biotin Nav1.7 (3-1) peptide, human (human, not fully specified; C-terminal biotin attached via a G4S linker)
T5 construct: Synthetic peptide; also called Human Nav1.7 3-1 C-term biotin
T5 peptide: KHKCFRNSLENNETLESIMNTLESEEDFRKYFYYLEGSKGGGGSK

T6: N-Term Biotin-Nav1.7 (3-1) peptide, human (human, not fully specified; N-terminal biotin attached via a G4S linker)
T6 construct: ELISA peptide
T6 peptide: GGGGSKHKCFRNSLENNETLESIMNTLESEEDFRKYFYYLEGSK


Experiments:
[1] = target: T1, Native Nav1.7 (3-1) peptide, rat; experiment: SPR, captured antibody, peptide analyte
Procedure: (§1) The binding affinities of anti-Naᵥ 1.7 antibodies to Naᵥ 1.7 loop peptides were determined by Biacore. For monovalent kinetic experiments, antibodies were captured through the Fc region via a goat anti-Fc-coupled biosensor surface, and the peptides (as analyte) were injected over this captured antibody surface. For bivalent (avidity-driven) kinetic experiments, biotinylated peptides corresponding to the Naᵥ 1.7 3-1, 3-3, or paddle loop sequences were captured on a NeutrAvidin sensor surface, and anti-Naᵥ 1.7 antibodies (as analyte) were injected over this surface. Following the capture step, each analyte was individually injected at several concentrations over its respective capture surface, and changes in bound surface units (RU) were monitored. The dissociation rate is independent of the concentration of analyte used in the experiment, and the dissociation rate constant (kd) was determined from the change in antibody-bound analyte RU over time. The Biacore kinetic data were obtained using a double referencing procedure. The double referencing was conducted by first subtracting any interaction of the analyte over the reference surface (i.e., the anti-Fc coupled surface alone or the NeutrAvidin surface alone), thereby correcting for nonspecific binding to capture surface and for refractive index changes. Control buffer injections (no analyte) over the antibody- or peptide-captured surfaces were also performed to allow subtraction of RU signal changes resulting from the natural dissociation of captured binding partner from the sensor surface. The kinetic parameters were obtained by globally fitting the data for all concentrations tested for a given peptide or antibody to a 1:1 binding model using Biacore T100 Evaluation Software version 2.0.2. The KD was calculated as the dissociation rate constant divided by the association rate constant (KD=kd/kₐ). The dissociative half-life (t_{1/2}) was calculated from the dissociation rate constant (t_{1/2}=In2/kd).

[2] = target: T1, Native Nav1.7 (3-1) peptide, rat; experiment: ELISA on coated peptide, antibody 1 ug/ml, OD450 grade
Procedure: (§2) Anti-Naᵥ 1.7 antibodies were tested for their ability to bind to the Naᵥ 1.7 peptides. The various peptides were coated overnight onto 96-well Nunc Immunosorp plates at a concentration of 4 μg/mL in PBS, followed by blocking for 1 hour in a suitable blocking agent. For biotinylated peptides, avidin was first coated on Nunc Immunosorp plates at 2 μg/mL in PBS overnight, followed by blocking as described, and the plate was then coated with biotinylated peptides at a concentration of 0.4 μg/mL and incubated for 1 hour at room temperature. Purified anti-Naᵥ 1.7 antibodies were diluted to a final concentration of 0.1 μg/mL and 1.0 μg/mL and added to the wells of the coated microtiter plates followed by incubation for 1 hour at room temperature. Bound antibodies were detected with horseradish peroxidase (HRP) conjugated anti-mouse or anti-human IgG (Jackson Immuno Research Lab, West Grove, Pa.) depending on the antibody species and developed by colorimetric response using tetramethylbenzidine (TMB) substrate (BD Biosciences). Absorbance was read at OD₄₅₀ on a plate reader for 0.1 second.
(§3) Values in Table 11 represent absolute binding ranges (at OD450) to plate-coated peptides for antibodies added at 1 μg/ml as follows: OD450<0.2: −; 0.2<OD450<1: +; 1<OD450<2: ++; 2<OD450<4: +++; NT: Not Tested.

[3] = target: full-length human Nav1.7 fused at its N-terminus to GFP, expressed in HEK293 cells (human, UniProt Q15858 1-1988); experiment: cell-based or functional assay
[4] = target: T2, Native Nav1.7 (3-1) peptide, human; experiment: SPR, captured antibody, peptide analyte
Procedure: as §1

[5] = target: T3, N-Term Biotin Nav1.7 (3-1) peptide, …; experiment: SPR, captured antibody, peptide analyte
Procedure: as §1

[6] = target: T4, N-Term Biotin Nav1.7 (3-1) peptide, …; experiment: SPR, captured antibody, peptide analyte
Procedure: as §1

[7] = target: T5, C-term Biotin Nav1.7 (3-1) peptide, …; experiment: SPR, captured biotin-peptide, antibody analyte
Procedure: as §1

[8] = target: T3, N-Term Biotin Nav1.7 (3-1) peptide, …; experiment: ELISA on coated peptide, antibody 1 ug/ml, OD450 grade
Procedure: as §2, §3

[9] = target: T6, N-Term Biotin-Nav1.7 (3-1) peptide, …; experiment: as above
Procedure: as §2, §3

Binder | Kd [1] | t1/2 [1] | OD450 [2] | Current blocking (Average % inhibition), IonWorks Quattro, 223 nM antibody [3] | Kd [4] | t1/2 [4] | Kd [5] | t1/2 [5] | binding result [6] | binding result [1] | Kd [7] | t1/2 [7] | OD450 [8] | OD450 [9] | Kd [6] | t1/2 [6]
H4H385B (antibody, V domains shown, Fully human antibody) VH: QVQLVESGGGVVQPGRSLRLSCAASGFTFSSYGMHWVRQAPGKGLEWVALISYVGSNKHYADSVKGRFTISRDNSKNTLYLQMNSLRAEDTAVYYCAKSRGYSYGLDYWGQGTLVTVSS VL: DIQMTQSPDSLAVSLGERATINCKSSQTVLHSSNNQNNLVWYQQKPGQPPKLLIYWASTRESGVPDRFSGSGSGTDFTLTISSLQAEDVAIYYCQQYYSTPYTFGQGTKLEIKR |  |  |  | 31% | 188 nM | 0.8 min | 29.3 nM | 3.1 min | no binding | no binding | 0.443 nM | 73.2 min |  |  |  | 
H4H391B (antibody, V domains shown) VH: QVQLVQSGGGVVQPGRSLRLSCAASGFTFSSYGMHWVRQAPGKGLEWVAVISYEGSNKHYADSVKGRFTISRDNSKNTLYLQMNSLRAEDTAVFYCAQSRGYSYGLGYWGQGTLVTVSS VL: not shown |  |  |  | 48% |  |  |  |  |  |  |  |  | 2 to 4 od | 2 to 4 od |  | 
H4H382B (antibody, V domains shown) VH: EVQLVQSGGGVVQPGRSLRLSCEASGFTFSSYGMHWVRQAPGKGLEWVAVISYDGSNKHYTDSVKGRFTISRDNSKNTLYLQMNSLRAEDTAVYFCAQSRGYSYGLGYWGQGTLVTVSS VL: DIQMTQSPDSLAVSLGERATINCKSSQSVLSSSNNENYLVWYQQKPGQPPKLLIYWASTREPGVPDRFSGGGSGTDFTLTISSLQAEDVAVYYCQQYHSIPYTFGQGTKVEIKR |  |  |  |  | 38.9 nM | 3.3 min | 13.1 nM | 6 min |  |  | 1.04 nM | 92.9 min | 2 to 4 od | 2 to 4 od |  | 
H4H368B (antibody, V domains shown) VH: EVQLVQSGGGVVQPGRSLRLSCAASGFTFSSYGMHWVRQAPGKGLEWVAVISYQESNKHYVDSVKGRFTISRDNSKNTLYLQMNSLRAEDTAVYYCAKSRGYSYGLGYWGQGTLVTVSS VL: not shown | 127 nM | 0.32 min | 2 to 4 od |  |  |  |  |  |  |  |  |  |  |  | 12 nM | 964 min
H4H434B (antibody, V domains shown, Fully human antibody) VH: QVQLVQSGGGLVQPGGSLRLSCAASGFTFSNYAMSWVRQAPGKGLEWVSAISGSGDNTYYADSVRGRFTISRDNSKNTLYLQMNSLRAEDTAIYYCAKDPHSSRWPGFFDLWGRGTLVTVSS VL: not shown | 107 nM | 0.17 min |  | 17.5% | 21.4 nM | 2.5 min | 3.68 nM | 4.7 min |  |  | 0.334 nM | 114 min |  |  | 8.98 nM | 3.4 min
H4H395B (antibody, V domains shown, Fully human antibody; 685/687 at r237); the full pair is used; also called H4H395N) VH: EVQLVESGGGLVQPGGSLRLSCAASGFTFSSYGMSWVRQVPGKGLEWVSAISGSGGSTYYVDSVKGRFTISRDNFKNTLYLQMNSLRVEDTAVYYCAKDVGYCSTTSCRGDAFDVWGQGTMVTVSS VL: not shown |  |  |  | 57% | 13.2 nM | 20.7 min | 2.5 nM | 34 min |  | no binding | 0.0252 nM | 108 min |  |  |  | 
H4H438B (antibody, V domains shown, Fully human antibody) VH: QVQLQQWGAGLLTPSETLSLTCAVYGGSFSGHYWSWIRQPPGKGLEWIGEINPRGSTNYKPSLKSRVTISVDTSKNQFSLNLRSVTAADTAMYYCAREGNLAARLWFFDLWGRGTLVTVSS VL: DIQMTQSPSSLSASVGDRGTITCRTSQSIRSYLNWYQQKPGKAPKLLIYAASSLQSGVPSRFSGSGSGTDFTLTISSLQPEDFATYFCQQSYSSPFTFGQGTKVEIKR | 77 nM | 0.56 min |  | 43.5% | 2.73 nM | 30.2 min | 0.54 nM | 111 min | no binding |  | 0.614 nM | 118 min |  |  |  | 
H1H1068B (antibody, V domains shown, Fully human antibody; the full pair is used) VH: QVQLVQSGAEVKKPGASVKVSCKASGYTFTSYGVSWVRQAPGQGLEWMGWISAYNGNTNYAQKLQGRVTMTTDTSTSTAYMELTSLRSDDTAVYYCARNWGDYWGQGTLVTVSS VL: not shown |  |  |  | 34% | 236 nM | 0.16 min | 42.6 nM | 0.34 min |  |  | 200 nM | 0.3 min |  |  |  | 

Continued, values first:

Kd [1] | t1/2 [1] | OD450 [2] | Current blocking (Average % inhibition), IonWorks Quattro, 223 nM antibody [3] | Kd [4] | t1/2 [4] | Kd [5] | t1/2 [5] | binding result [6] | binding result [1] | Kd [7] | t1/2 [7] | OD450 [8] | OD450 [9] | Kd [6] | t1/2 [6] | Binder
176 nM | 0.48 min | 1 to 2 od |  |  |  |  |  |  |  |  |  |  |  |  |  | H4H443B (antibody, V domains shown) VH: QVQLVESGGGLVQPGRSLRLSCAASGFTFDDYAMHWVRQVPGKGLEWVSGINWNSGSIGYADSVKGRFTISRDNAKNSLFLQMNSLRAEDTALYYCAKDIEYYDILTGYYSYYIMDVWGQGTTVTVSS VL: DIQMTQSPSFLSASVGDRVTITCWASQGISSYLAWYQQKPGKAPKLLIYASSTLQSGVPSRFSGSGSGTEFTLTISSLQPEDFATYYCQQFNSYPPTFGQGTKVEIKR
178 nM | 0.39 min |  |  | 6.58 nM | 12.5 min | 0.439 nM | 128 min | no binding |  | 0.703 nM | 86.9 min |  |  |  |  | H4H441B (antibody, V domains shown, Fully human antibody; the full pair is used) VH: QVQLQQWGAGLLKPSETLSLTCAVYGGSFSGHYWTWIRQPPGKGLEWIGEINHRGNTNYNPSLKSRATISVDTSKNQFSLKLSSVTAADTAVYYCAREGSLAARLWFFDLWGRDTPVTVSS VL: DIQMTQSPSSLSASVGDRGTVTCRASQNIRTYLNWYQQKPGKAPKLLIYAASSLQSGVPSRFSGSGSGTDFTLTISSLQPEDFATYYCQQSYGTPYTFGQGTKVEIKR
 |  |  |  |  |  |  |  | no binding | no binding |  |  |  |  |  |  | H1H1025B (antibody, V domains shown, Fully human antibody; 722/724 at r244); the full pair is used) VH: QVQLVESGGGVVQPGRSLRLSCAASGFTFSNYGMHWVRQAPGKGLEWVAAIWFDGSNKKYVDSVKGRFTISRDNSKNTLYLQMNSLRAGDTAVYYCTRDRSGSFDYWGQGTLVTVSS VL: DIQLTQSPSSLSASVGDRVTITCRASQGIRNDLGWYQQKPGKAPKRLIYAASSLQSGVPSRFSGSGSGTEFTLTISSLQPEDFATYYCLQHNSYPCTFGQGTKVEIKR
